Here are results for 2 molecules from patent US20190359722A1 (TOYO UNIVERSITY, published 2019).

The assay deals with T1, full-length human EPHA2 expressed on 293T cells (pcDNA-DEST40-EPHA2) (human, UniProt P29317 24-976).
T1 construct: The stop codon was removed before transfer into pcDNA-DEST40; also called EPHA2-expressing 293T cells
Description: flow cytometry, hybridoma supernatant on EPHA2-transfected 293T cells. On the procedure:
293T cells were seeded at a density of 5×10⁴ cells/cm² on a collagen type I-coated flask (IWAKI), and were then cultured in DMEM supplemented with 10% FBS at 37° C. in 5% CO₂ under a humidified atmosphere overnight. On the following day, the 293T cells were transfected with each of pcDNA-DEST40-EPHA2 and pcDNA-DEST40-ERBB2 (negative control), using Lipofectamine 2000 (Invitrogen, Thermo Fisher Scientific), and thereafter, the resulting cells were further cultured at 37° C. in 5% CO₂ under a humidified atmosphere overnight. On the following day, the transfected cells were treated with trypsin, and were then washed with DMEM supplemented with 10% FBS. The resulting cells were suspended in 5% FBS-containing PBS. These cells were used in Cell-ELISA and flow cytometric analysis.
In order to eliminate false-positive results in the Cell-ELISA, the specific binding ability of antibodies generated by the hybridomas that had been determined to be positive in the Cell-ELISA was confirmed by flow cytometry. The cells prepared in the above 1)-6-1 were mixed with a culture supernatant of the hybridomas, and the obtained mixture was then incubated at 4° C. for 1 hour. […]

T1 sequence (P29317 24-976 limits assumed): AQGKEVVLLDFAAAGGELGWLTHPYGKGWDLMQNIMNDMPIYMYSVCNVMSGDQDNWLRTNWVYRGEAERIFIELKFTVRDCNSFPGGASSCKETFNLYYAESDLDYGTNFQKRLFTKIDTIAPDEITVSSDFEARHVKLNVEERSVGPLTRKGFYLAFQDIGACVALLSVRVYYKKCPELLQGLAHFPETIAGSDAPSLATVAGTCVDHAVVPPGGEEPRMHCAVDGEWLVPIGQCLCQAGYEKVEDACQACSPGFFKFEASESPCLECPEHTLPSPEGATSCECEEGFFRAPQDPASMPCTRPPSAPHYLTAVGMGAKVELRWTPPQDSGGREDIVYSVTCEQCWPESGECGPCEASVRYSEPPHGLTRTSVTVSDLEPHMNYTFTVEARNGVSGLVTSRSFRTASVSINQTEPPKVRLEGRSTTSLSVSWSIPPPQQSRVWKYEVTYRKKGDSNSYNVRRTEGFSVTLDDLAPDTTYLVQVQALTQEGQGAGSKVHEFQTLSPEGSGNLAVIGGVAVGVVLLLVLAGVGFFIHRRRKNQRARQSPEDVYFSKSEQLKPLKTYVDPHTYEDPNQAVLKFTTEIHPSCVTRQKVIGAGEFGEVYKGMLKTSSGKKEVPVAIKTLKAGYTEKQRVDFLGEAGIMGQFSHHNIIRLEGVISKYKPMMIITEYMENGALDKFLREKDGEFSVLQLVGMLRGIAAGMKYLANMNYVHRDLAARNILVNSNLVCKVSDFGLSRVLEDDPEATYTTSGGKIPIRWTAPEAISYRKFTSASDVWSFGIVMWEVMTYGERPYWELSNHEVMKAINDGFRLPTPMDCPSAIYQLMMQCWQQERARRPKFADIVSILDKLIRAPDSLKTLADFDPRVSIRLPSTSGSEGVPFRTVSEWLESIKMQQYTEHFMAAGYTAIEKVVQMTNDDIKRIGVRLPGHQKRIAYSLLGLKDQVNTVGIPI

B1: mouse anti-EPHA2 monoclonal antibody 57-1 (antibody, V domains shown)
VH: QIQLVQSGPELKKPGETVKISCKGSGYTFTNYGMNWVKQAPGKGLKWMAWINTDTGEPIFVEEFKGRFAFSLETSASTAYLQINNLTNEDTATYFCARSMGGFANWGQGTLVTVSA
VL: DIVMTQSPATLSVTPGDRVSLSCRASQNISDYLHWYQQKSHESPRLLIKYASQSISGIPSRFSGSGSGSDFTLTINSVEPEDVAMYYCQNGHTFPTFGAGTKLELKR
notes: The variable regions were found by 5'-RACE; Used unlabeled as capture antibody and biotin-labeled as detection antibody; also called biotin-labeled antibody 57-1
On to B1, for which the binding result is “binds”.

B2: mouse anti-EPHA2 monoclonal antibody 230-1 (antibody, V domains shown)
VH: EVQLVESGGGLVKPGGSLKLSCEASGFTFSDYYMYWVRQTPEKRLEWVATISDDGSFTHYLDSVKGRFTISRDNAQNNLYLQMSSLKSDDTAMYYCARDGYRYDRPFAYWGQGTLVTVSA
VL: DIVMTQSHKFMSTSVGDRVRITCKASQDVNTAVAWYQQKPGQSPKLLIYWASTRHTGVPDRFTGSGSGTDYSLTISSVQAEDLALYYCQQHYSTPYTFGGGTKLEIKR
notes: The variable regions were found by 5'-RACE; Used unlabeled as capture antibody and biotin-labeled as detection antibody; also called biotin-labeled antibody 230-1
Take B2: the binding result was “binds”.
